The supplement of paper PMC5998384

How the values were obtained:
HeLa Kyoto [1] = experiment: melting temperature (median over replicates), in situ; higher = more thermally stable
HeLa Kyoto [2] = experiment: solubility in G1/S (NP-40 vs SDS abundance) (log2 ratio); higher = more soluble; details: cell cycle stage: G1/S
HeLa Kyoto [3] = experiment: solubility change mitosis vs G1/S (difference of NP-40 vs SDS log2 ratios) (log2 ratio difference); higher = more soluble in mitosis
HeLa Kyoto [4] = experiment: thermal stability score vs G1/S (z-score of summed log2 fold changes over temperatures); higher = more thermally stable than in G1/S
[5] = cell cycle stage: early G1 (4.5 h after nocodazole release)
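For melting temperature (median over replicates), in situ in this document: HeLa Kyoto cells synchronized by double thymidine or nocodazole block, proteins quantified by TMT10plex mass spectrometry, three independent biological replicates.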
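For solubility change mitosis vs G1/S (difference of NP-40 vs SDS log2 ratios) in this document: synchronized HeLa Kyoto cells (double thymidine block for G1/S, nocodazole release for mitosis), protein amounts in NP-40 versus SDS lysates quantified by mass spectrometry, three biological replicates.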
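For solubility in G1/S (NP-40 vs SDS abundance) in this document: HeLa Kyoto cells arrested at G1/S by double thymidine block, proteins quantified by TMT10plex mass spectrometry in mild NP-40 versus SDS extracts, three biological replicates.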
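For thermal stability score vs G1/S (z-score of summed log2 fold changes over temperatures) in this document: synchronized HeLa Kyoto cells, proteins quantified by TMT10plex mass spectrometry, three biological replicates, mitosis taken 0.5 h after nocodazole release, G1/S directly after double thymidine block.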

Row | Sequence | melting temperature (HeLa Kyoto [1]; cell cycle stage: G1/S) [°C] | melting temperature (HeLa Kyoto [1]; cell cycle stage: mitosis) [°C] | solubility in G1/S (log2) (HeLa Kyoto [2]) | solubility change mitosis (log2) (HeLa Kyoto [3]) | thermal stability score (HeLa Kyoto [4]; [5]) | thermal stability score (HeLa Kyoto [4]; cell cycle stage: mitosis)
1 | MATAVSRPCAGRSRDILWRVLGWRIVASIVWSVLFLPICTTVFIIFSRIDLFHPIQWLSDSFSDLYSSYVIFYFLLLSVVIIIISIFNVEFYAVVPSIPCSRLALIGKIIHPQQLMHSFIHAAMGMVMAWCAAVITQGQYSFLVVPCTGTNSFGSPAAQTCLNEYHLFFLLTGAFMGYSYSLLYFVNNMNYLPFPIIQQYKFLRFRRSLLLLVKHSCVESLFLVRNFCILYYFLGYIPKAWISTAMNLHIDEQVHRPLDTVSGLLNLSLLYHVWLCGVFLLTTWYVSWILFKIYATEAHVFPVQPPFAEGSDECLPKVLNSNPPPIIKYLALQDLMLLSQYSPSRRQEVFSLSQPGGHPHNWTAISRECLNLLNGMTQKLILYQEAAATNGRVSSSYPVEPKKLNSPEETAFQTPKSSQMPRPSVPPLVKTSLFSSKLSTPDVVSPFGTPFGSSVMNRMAGIFDVNTCYGSPQSPQLIRRGPRLWTSASDQQMTEFSNPSPSTSISAEGKTMRQPSVIYSWIQNKREQIKNFLSKRVLIMYFFSKHPEASIQAVFSDAQMHIWALEGLSHLVAASFTEDRFGVVQTTLPAILNTLLTLQEAVDKYFKLPHASSKPPRISGSLVDTSYKTLRFAFRASLKTAIYRITTTFGEHLNAVQASAEHQKRLQQFLEFKE [NDC1] | 52.7 | 51.3 | -0.187 | 0.182 | -4.66 | -7.41
2 | MAASMARRLWPLLTRRGFRPRGGCISNDSPRRSFTTEKRNRNLLYEYAREGYSALPQLDIERFCACPEEAAHALELRKGELRSADLPAIISTWQELRQLQEQIRSLEEEKAAVTEAVRALLANQDSGEVQQDPKYQGLRARGREIRKELVHLYPREAQLEEQFYLQALKLPNQTHPDVPVGDESQARVLHMVGDKPVFSFQPRGHLEIGEKLDIIRQKRLSHVSGHRSYYLRGAGALLQHGLVNFTFNKLLRRGFTPMTVPDLLRGAVFEGCGMTPNANPSQIYNIDPARFKDLNLAGTAEVGLAGYFMDHTVAFRDLPVRMVCSSTCYRAETNTGQEPRGLYRVHHFTKVEMFGVTGPGLEQSSQLLEEFLSLQMEILTELGLHFRVLDMPTQELGLPAYRKFDIEAWMPGRGRFGEVTSASNCTDFQSRRLHIMFQTEAGELQFAHTVNATACAVPRLLIALLESNQQKDGSVLVPPALQSYLGTDRITAPTHVPLQYIGPNQPRKPGLPGQPAVS [SARS2] | 51.5 | 51.4 | 0.265 | -0.148 | 2.24 | 1.72
3 | MGGRVFLAFCVWLTLPGAETQDSRGCARWCPQNSSCVNATACRCNPGFSSFSEIITTPTETCDDINECATPSKVSCGKFSDCWNTEGSYDCVCSPGYEPVSGAKTFKNESENTCQDVDECQQNPRLCKSYGTCVNTLGSYTCQCLPGFKFIPEDPKVCTDVNECTSGQNPCHSSTHCLNNVGSYQCRCRPGWQPIPGSPNGPNNTVCEDVDECSSGQHQCDSSTVCFNTVGSYSCRCRPGWKPRHGIPNNQKDTVCEDMTFSTWTPPPGVHSQTLSRFFDKVQDLGRDSKTSSAEVTIQNVIKLVDELMEAPGDVEALAPPVRHLIATQLLSNLEDIMRILAKSLPKGPFTYISPSNTELTLMIQERGDKNVTMGQSSARMKLNWAVAAGAEDPGPAVAGILSIQNMTTLLANASLNLHSKKQAELEEIYESSIRGVQLRRLSAVNSIFLSHNNTKELNSPILFAFSHLESSDGEAGRDPPAKDVMPGPRQELLCAFWKSDSDRGGHWATEGCQVLGSKNGSTTCQCSHLSSFAILMAHYDVEDWKLTLITRVGLALSLFCLLLCILTFLLVRPIQGSRTTIHLHLCICLFVGSTIFLAGIENEGGQVGLRCRLVAGLLHYCFLAAFCWMSLEGLELYFLVVRVFQGQGLSTRWLCLIGYGVPLLIVGVSAAIYSKGYGRPRYCWLDFEQGFLWSFLGPVTFIILCNAVIFVTTVWKLTQKFSEINPDMKKLKKARALTITAIAQLFLLGCTWVFGLFIFDDRSLVLTYVFTILNCLQGAFLYLLHCLLNKKVREEYRKWACLVAGGSKYSEFTSTTSGTGHNQTRALRASESGI [CD97] | 59.6 | 58.4 | 0.257 | -0.171 | 0.176 | -0.537
4 | MAAEGWIWRWGWGRRCLGRPGLLGPGPGPTTPLFLLLLLGSVTADITDGNSEHLKREHSLIKPYQGVGSSSMPLWDFQGSTMLTSQYVRLTPDERSKEGSIWNHQPCFLKDWEMHVHFKVHGTGKKNLHGDGIALWYTRDRLVPGPVFGSKDNFHGLAIFLDTYPNDETTERVFPYISVMVNNGSLSYDHSKDGRWTELAGCTADFRNRDHDTFLAVRYSRGRLTVMTDLEDKNEWKNCIDITGVRLPTGYYFGASAGTGDLSDNHDIISMKLFQLMVEHTPDEESIDWTKIEPSVNFLKSPKDNVDDPTGNFRSGPLTGWRVFLLLLCALLGIVVCAVVGAVVFQKRQERNKRFY [LMAN2] | 54.1 | 53.8 | 0.163 | -0.0609 | 2.85 | 5.52
5 | MSEPIRVLVTGAAGQIAYSLLYSIGNGSVFGKDQPIILVLLDITPMMGVLDGVLMELQDCALPLLKDVIATDKEDVAFKDLDVAILVGSMPRREGMERKDLLKANVKIFKSQGAALDKYAKKSVKVIVVGNPANTNCLTASKSAPSIPKENFSCLTRLDHNRAKAQIALKLGVTANDVKNVIIWGNHSSTQYPDVNHAKVKLQGKEVGVYEALKDDSWLKGEFVTTVQQRGAAVIKARKLSSAMSAAKAICDHVRDIWFGTPEGEFVSMGVISDGNSYGVPDDLLYSFPVVIKNKTWKFVEGLPINDFSREKMDLTAKELTEEKESAFEFLSSA [MDH1] | 57.2 | 56.8 | 0.43 | -0.111 | -0.848 | 0.036
6 | MFGRSRSWVGGGHGKTSRNIHSLDHLKYLYHVLTKNTTVTEQNRNLLVETIRSITEILIWGDQNDSSVFDFFLEKNMFVFFLNILRQKSGRYVCVQLLQTLNILFENISHETSLYYLLSNNYVNSIIVHKFDFSDEEIMAYYISFLKTLSLKLNNHTVHFFYNEHTNDFALYTEAIKFFNHPESMVRIAVRTITLNVYKVSLDNQAMLHYIRDKTAVPYFSNLVWFIGSHVIELDDCVQTDEEHRNRGKLSDLVAEHLDHLHYLNDILIINCEFLNDVLTDHLLNRLFLPLYVYSLENQDKGGERPKISLPVSLYLLSQVFLIIHHAPLVNSLAEVILNGDLSEMYAKTEQDIQRSSAKPSIRCFIKPTETLERSLEMNKHKGKRRVQKRPNYKNVGEEEDEEKGPTEDAQEDAEKAKGTEGGSKGIKTSGESEEIEMVIMERSKLSELAASTSVQEQNTTDEEKSAAATCSESTQWSRPFLDMVYHALDSPDDDYHALFVLCLLYAMSHNKGMDPEKLERIQLPVPNAAEKTTYNHPLAERLIRIMNNAAQPDGKIRLATLELSCLLLKQQVLMSAGCIMKDVHLACLEGAREESVHLVRHFYKGEDIFLDMFEDEYRSMTMKPMNVEYLMMDASILLPPTGTPLTGIDFVKRLPCGDVEKTRRAIRVFFMLRSLSLQLRGEPETQLPLTREEDLIKTDDVLDLNNSDLIACTVITKDGGMVQRFLAVDIYQMSLVEPDVSRLGWGVVKFAGLLQDMQVTGVEDDSRALNITIHKPASSPHSKPFPILQATFIFSDHIRCIIAKQRLAKGRIQARRMKMQRIAALLDLPIQPTTEVLGFGLGSSTSTQHLPFRFYDQGRRGSSDPTVQRSVFASVDKVPGFAVAQCINQHSSPSLSSQSPPSASGSPSGSGSTSHCDSGGTSSSSTPSTAQSPADAPMSPELPKPHLPDQLVIVNETEADSKPSKNVARSAAVETASLSPSLVPARQPTISLLCEDTADTLSVESLTLVPPVDPHSLRSLTGMPPLSTPAAACTEPVGEEAACAEPVGTAED [CLEC16A] | 55.7 | 57.4 | -0.224 | -0.241 | -1.42 | -1.87
7 | MSGPTWLPPKQPEPARAPQGRAIPRGTPGPPPAHGAALQPHPRVNFCPLPSEQCYQAPGGPEDRGPAWVGSHGVLQHTQGLPADRGGLRPGSLDAEIDLLSSTLAELNGGRGHASRRPDRQAYEPPPPPAYRTGSLKPNPASPLPASPYGGPTPASYTTASTPAGPAFPVQVKVAQPVRGCGPPRRGASQASGPLPGPHFPLPGRGEVWGPGYRSQREPGPGAKEEAAGVSGPAGRGRGGEHGPQVPLSQPPEDELDRLTKKLVHDMNHPPSGEYFGQCGGCGEDVVGDGAGVVALDRVFHVGCFVCSTCRAQLRGQHFYAVERRAYCEGCYVATLEKCATCSQPILDRILRAMGKAYHPGCFTCVVCHRGLDGIPFTVDATSQIHCIEDFHRKFAPRCSVCGGAIMPEPGQEETVRIVALDRSFHIGCYKCEECGLLLSSEGECQGCYPLDGHILCKACSAWRIQELSATVTTDC [TRIP6] | 52 | 52 | -0.106 | -0.132 | 0.24 | -0.443
